Test results as given in paper PMC10268213 (2023).

Tests used:
[1] = molecular target: T1, SARS-CoV-2 receptor-binding domain (RBD) (SARS-CoV-2, UniProt P0DTC2); experiment: SPR
[2] = molecular target: T1, SARS-CoV-2 receptor-binding domain (RBD); experiment: SPR; remark: listed apart in the source

B1: Nb-C4-240 nanobody (VHH)
VHH: EVQLQESGGGLVQPGGSLRLSCAASGFTFSSYAMGWYRQAPGKEREWVCAISGSGGSTYYADSVKGRFTCSRDNSKNTLYLQMNSLKPEDTAVYYCARVVSYYDQTGFVYWQSYDYWGQGTQVTVSS
koff [1]: 0.969 s⁻¹
Kd [2]: 1060 nM

B2: Nb-C4-225 nanobody (VHH)
VHH: EVQLQESGGGLVQPGGSLRLSCAASGFTFSSYAMGWYRQAPGKEREWVCAISGSGGSTYYADSVKGRFTCSRDNSKNTLYLQMNSLKPEDTAVYYCARGSFYYTYGGSVGFDAFDYWGQGTQVTVSS
koff [1]: 0.0057 s⁻¹
Kd [2]: 143 nM

B3: Nb-C4-255 nanobody (VHH)
VHH: EVQLQESGGGLVQPGGSLRLSCAASGFTFSSYAMGWYRQAPGKEREWVCAISGSGGSTYYADSVKGRFTCSRDNSKNTLYLQMNSLKPEDTAVYYCARQAWYYSPYGGPEFEAFDYWGQGTQVTVSS
koff [1]: 0.295 s⁻¹
Kd [2]: 2950 nM

B4: LM18 nanobody (VHH)
VHH: EVQLQESGGGLVQPGGSLRLSCAASGFTFSSYALGWYRQAPGKEREWVCAISGSGGSTYYADSVKGRFTCSRDNSKNTLYLQMNSLKPEDTAVYYCARVYQFYGARDYGYPYDFDYWGQGTQVTVSS
koff [1]: 0.0944 s⁻¹
Kd [2]: 391 nM

B5: Nb-C2-136 nanobody (VHH)
VHH: EVQLQESGGGLVQPGGSLRLSCAASGFTFSSYAMGWYRQAPGKEREWVCAISGSGGSTYYADSVKGRFTCSRDNSKNTLYLQMNSLKPEDTAVYYCARYGGPYDPTDSTYAFDYWGQGTQVTVSS
koff [1]: 0.032 s⁻¹
Kd [2]: 382 nM
